Data set [1] deals with the molecule itself. Briefly: SEC; HiLoad 16/600 Superdex 200 PG, 1 ml/min, 25 mM Tris-HCl pH 8.0, 200 mM NaCl, 5% glycerol; proteins incubated together at 4°C for 30 min before the run; each protein also run alone; peaks checked by SDS-PAGE.
In data set [2] the target is T1, ComZ (residues 31 to 554), Thermus thermophilus HB27 (Thermus thermophilus HB27, UniProt Q8KPZ1 31-554).
T1 construct: Cloned into pET-22b (NcoI/XhoI); also called recombinant ComZ fragment; comZ-22b construct; source: E. coli T7 Express, purified (HisTrap HP, SEC); not shown: His6, C-terminal, kept
T1 sequence (looked up): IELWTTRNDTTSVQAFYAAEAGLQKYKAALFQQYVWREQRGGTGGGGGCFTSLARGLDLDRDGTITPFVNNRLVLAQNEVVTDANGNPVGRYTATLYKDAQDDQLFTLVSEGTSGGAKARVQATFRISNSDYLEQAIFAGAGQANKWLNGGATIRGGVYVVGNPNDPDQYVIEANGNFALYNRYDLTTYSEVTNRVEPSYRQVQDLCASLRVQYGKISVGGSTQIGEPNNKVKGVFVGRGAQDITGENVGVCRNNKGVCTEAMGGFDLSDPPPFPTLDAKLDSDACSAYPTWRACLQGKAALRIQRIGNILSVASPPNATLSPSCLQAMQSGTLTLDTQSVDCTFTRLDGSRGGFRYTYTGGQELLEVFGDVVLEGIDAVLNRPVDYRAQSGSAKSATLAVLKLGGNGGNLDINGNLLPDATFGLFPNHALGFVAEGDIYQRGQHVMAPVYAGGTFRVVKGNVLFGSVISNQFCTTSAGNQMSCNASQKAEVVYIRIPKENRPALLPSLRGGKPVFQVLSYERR
Briefly: ITC; MicroCal PEAQ-ITC; 20 aliquots of 2 μl PilA2 (314 μM) titrated into 300 μl ComZ (33 μM), 25°C; fitted assuming a single binding site. To be noted: both partners purified.

B1: PilA3 soluble domain (residues 33 to 233), Thermus thermophilus HB27 (domain or fragment, UniProt Q72JC2 33-233, looked up)
chain: ELARNTQARSELQDRVRMVMQVVTADLQMAGARYWNSGNQNQAFSLPLPPLSGSNMGPKDTLTLYYVTSLRDLASACRRVDYGFEGDTLRRSDVNATPSSGSDCTTPPPNSQPLAEGMLALDIQYQCSDGSRKDTPDCGTDAYPRSAKVTVAGYSLTSVTNPGPASLTTVTGKTLACPQGRACYALTQEVLMPNLKPLPTP
notes: Synthetic gene (GeneArt), codon-optimised for E. coli, in pET-22b (BamHI/XhoI); source: E. coli Lemo21(DE3), purified (StrepTrap HP, SEC); not shown: Strep-tag II, C-terminal, kept
Consider B1, for which the binding result in data set [1] is given as “binds”.

B2: PilA2 soluble domain (residues 33 to 193), Thermus thermophilus HB27 (domain or fragment, UniProt Q72JC3 33-193, looked up)
chain: RASAQARFATDAKAAAVQVLERRSAEVLKSEIVPALSPYKDAPLDPDNPSGNWRSFYFVDYYFSCPTRVAPSPKQRGGSVANLRPGLTCSGTETIFGIPVAWDIRGENGILGEGVVTVVVTATHPRGPKVTLGRRVTCYDVYPSPTQDQPAPCPPPGGGRP
notes: Synthetic gene (GeneArt), codon-optimised for E. coli, in pET-22b (BamHI/XhoI); also called recombinant PilA2; source: E. coli Lemo21(DE3), purified (StrepTrap HP, SEC); not shown: Strep-tag II, C-terminal, kept
Consider B2, for which, in data set [2], the Kd is 690 nM, the dH is 2.3 kcal/mol and the “stoichiometry N” value is 1.1.

In general, Kd refers to the concentration at which binding is half-saturated. The low end stands for tighter binding, the high end for weaker binding. The term stoichiometry N denotes a count of units in the complex or per binding partner.

The values are drawn from PMC6561018, “Structure and Properties of a Natural Competence-Associated Pilin Suggest a Unique Pilus Tip-Associated DNA Receptor” (mBio, 2019).
